Measurements from US7419799 (GENETECH, dated 2008).
One block for each binder: values may come before it.

What was measured:
SHP2 [1] = target: T1, SHP2 (human, UniProt Q06124 2-593); test: co-immunoprecipitation from isolated human CD4+ T cells (untreated), Western blot
T1 sequence (looked up): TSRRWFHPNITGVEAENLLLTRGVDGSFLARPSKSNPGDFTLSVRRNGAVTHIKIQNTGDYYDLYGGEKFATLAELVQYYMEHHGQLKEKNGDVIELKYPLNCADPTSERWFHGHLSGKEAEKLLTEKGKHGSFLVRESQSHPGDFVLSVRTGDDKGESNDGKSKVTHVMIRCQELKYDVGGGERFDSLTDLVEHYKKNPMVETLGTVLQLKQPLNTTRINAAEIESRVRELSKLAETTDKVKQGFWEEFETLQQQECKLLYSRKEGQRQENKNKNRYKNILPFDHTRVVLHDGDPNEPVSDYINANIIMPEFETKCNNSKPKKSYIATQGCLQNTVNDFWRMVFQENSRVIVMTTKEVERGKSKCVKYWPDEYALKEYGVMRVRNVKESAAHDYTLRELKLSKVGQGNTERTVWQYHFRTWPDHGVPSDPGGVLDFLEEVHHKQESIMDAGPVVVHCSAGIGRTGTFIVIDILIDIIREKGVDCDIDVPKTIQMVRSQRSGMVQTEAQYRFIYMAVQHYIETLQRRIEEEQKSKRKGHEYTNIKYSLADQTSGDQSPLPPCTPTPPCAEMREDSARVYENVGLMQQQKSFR

SHP1 [2] = target: T2, SHP1 (human, UniProt P29350 1-595); test: as above
T2 sequence (P29350 whole entry): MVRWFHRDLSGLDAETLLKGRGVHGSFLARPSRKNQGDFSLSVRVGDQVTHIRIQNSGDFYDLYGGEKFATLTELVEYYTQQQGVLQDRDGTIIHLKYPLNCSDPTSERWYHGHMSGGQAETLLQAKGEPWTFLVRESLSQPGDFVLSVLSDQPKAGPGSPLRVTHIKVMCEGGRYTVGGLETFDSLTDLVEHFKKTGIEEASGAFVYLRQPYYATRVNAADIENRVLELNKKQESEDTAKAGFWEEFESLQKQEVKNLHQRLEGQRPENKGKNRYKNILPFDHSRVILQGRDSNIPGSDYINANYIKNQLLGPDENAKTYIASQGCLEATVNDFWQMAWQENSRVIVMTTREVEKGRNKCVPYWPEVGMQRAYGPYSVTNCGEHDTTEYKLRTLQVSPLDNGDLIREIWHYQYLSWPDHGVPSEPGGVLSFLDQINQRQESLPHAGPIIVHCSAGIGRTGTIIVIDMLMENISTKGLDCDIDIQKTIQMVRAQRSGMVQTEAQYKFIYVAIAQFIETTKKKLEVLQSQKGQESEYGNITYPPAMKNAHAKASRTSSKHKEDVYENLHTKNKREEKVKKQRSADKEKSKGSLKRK

SHP2 [3] = target: T1, SHP2; test: co-immunoprecipitation from isolated human CD4+ T cells (CD3 and PRO20080 cross-linked), Western blot
SHP1 [4] = target: T2, SHP1; test: as above
[5] = target: the molecule itself; test: BIAcore, homotypic interaction of His-tagged PRO20080
Experimental: Lastly, a BIAcore® assay was performed to determine if a His-tagged PRO20080 would associate with itself. The association rate can be determined by any method in which formation of the complex may be observed as a function of time. In the BIAcore® analysis, in which one measures the association of the protein to an protein that has been immobilized on a biosensor surface (reviewed by Rich & Myszka, Curr. Opin. Biotechnol. 11:54-61 (2000)).

binding result (SHP2 [1]): no binding
binding result (SHP1 [2]): no binding
B1: wild type PRO20080 (full-length, expressed in cells) (receptor)
chain: FGPGNVVSQSSLTPLMVNGILGESVTLPLEFPAGEKVNFITWLFNETSLAFIVPHETKSPEIHVTNPKQGKRLNFTQSYSLQLSNLKMEDTGSYRAQISTKTSAKLSSYTLRILRQLRNIQVTNHSQLFQNMTCELHLTCSVEDADDNVSFRWEALGNTLSSQPNLTVSWDPRISSEQDYTCIAENAVSNLSFSVSAQKLCEDVKIQYTDTKMILFMVSGICIVFGFIILLLLVLRKRRDSLSLSTQRTQGPAESARNLEYVSVSPTNNTVYASVTHSNRETEIWTPRENDTITIYSTINHSKESKPTFSRATALDNVV
notes: also called PRO20080 receptor

binding result (SHP2 [3]): no binding
binding result (SHP1 [4]): no binding
B2: phosphorylated PRO20080 (receptor)
chain: B1 chain
modifications: tyrosine-phosphorylated (detected with anti-phosphotyrosine antibody; sites not stated)
notes: The phosphorylated residues are not identified; also called PRO20080 in pervanadate treated cells; PRO20080 after CD3 and PRO20080 cross linking

B3: His-tagged PRO20080 (receptor)
chain: QSSLTPLMVNGILGESVTLPLEFPAGEKVNFITWLFNETSLAFIVPHETKSPEIHVTNPKQGKRLNFTQSYSLQLSNLKMEDTGSYRAQISTKTSAKLSSYTLRILRQLRNIQVTNHSQLFQNMTCELHLTCSVEDADDNVSFRWEALGNTLSSQPNLTVSWDPRISSEQDYTCIAENAVSNLSFSVSAQKLCEDVKIQYTDTKM
notes: In the BIAcore assay the same protein served as both the immobilized and the soluble partner; not shown: His tag
Kd [5]: > 100 µM
